{
  "source": "paper PMC4156074",
  "about": "(2014)",
  "biological_target": "Full-length human plasma kallikrein, activated form (human, UniProt P03952 20-390; P03952 391-638)",
  "sequence (P03952 20-390, chain 1 of 2)": "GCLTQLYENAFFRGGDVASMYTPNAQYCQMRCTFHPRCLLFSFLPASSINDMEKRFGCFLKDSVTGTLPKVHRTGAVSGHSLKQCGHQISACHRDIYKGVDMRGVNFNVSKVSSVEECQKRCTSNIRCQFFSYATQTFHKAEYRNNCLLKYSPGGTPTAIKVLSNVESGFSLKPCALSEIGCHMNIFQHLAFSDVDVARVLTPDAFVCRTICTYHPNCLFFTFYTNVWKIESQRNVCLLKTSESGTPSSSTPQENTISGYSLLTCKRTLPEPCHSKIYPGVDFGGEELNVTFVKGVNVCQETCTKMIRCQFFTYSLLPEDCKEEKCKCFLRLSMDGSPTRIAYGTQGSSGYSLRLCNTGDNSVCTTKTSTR",
  "sequence (P03952 391-638, chain 2 of 2)": "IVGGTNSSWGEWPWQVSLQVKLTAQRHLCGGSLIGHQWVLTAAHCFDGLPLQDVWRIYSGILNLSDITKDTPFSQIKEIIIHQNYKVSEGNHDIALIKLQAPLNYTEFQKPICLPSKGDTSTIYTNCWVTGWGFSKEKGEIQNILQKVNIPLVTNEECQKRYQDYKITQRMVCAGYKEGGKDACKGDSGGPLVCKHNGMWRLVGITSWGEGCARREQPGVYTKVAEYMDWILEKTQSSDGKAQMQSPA",
  "assay": "apparent Ki",
  "data": [
    {"binder": "Fab M0162-A04 (lead Fab, parent of the affinity maturation) (Fab, V domains shown) VH: EVQLLESGGGLVQPGGSLRLSCAASGFTFSHYIMMWVRQAPGKGLEWVSGIYSSGGITVYADSVKGRFTISRDNSKNTLYLQMNSLRAEDTAVYYCAYRRTGIPRRDAFDIWGQGTMVTVSS VL: DIQMTQSPSTLSASVGDRVTITCRASQSISSWLAWYQQKPGKAPNLLIYKASTLESGVPSRFSGSGSGTEFTLTISSLQPDDFATYYCQQYNTYWTFGQGTKVEIK", "values": [
      {"measurement": "Ki", "result": 5.39, "unit": "nM"}
    ]}
  ]
}
